{
  "source": "patent US20260062488A1",
  "about": "(AbbVie / Abbott, published 2026)",
  "key": {"[1]": {"biological_target": "T1, cynomolgus α4β7 integrin (cynomolgus monkey)", "T1 construct": "whole, on cells; On CHOK1-cα4β7 cells or cynomolgus blood lymphocytes; also called cα4β7; cyno α4β7", "assay": "FACS, cyno CD4+ total"}, "[2]": {"biological_target": "T1, cynomolgus α4β7 integrin", "assay": "FACS, cyno CD4+ naïve"}, "[3]": {"biological_target": "T1, cynomolgus α4β7 integrin", "assay": "FACS, cyno CD4+ total", "remark": "listed apart in the source"}, "[4]": {"biological_target": "T1, cynomolgus α4β7 integrin", "assay": "FACS, cyno CD8+ naïve"}, "[5]": {"biological_target": "T1, cynomolgus α4β7 integrin", "assay": "FACS, cyno CD8+ total"}, "[6]": {"biological_target": "T1, cynomolgus α4β7 integrin", "assay": "FACS, cyno CD4+ memory"}, "[7]": {"biological_target": "T1, cynomolgus α4β7 integrin", "assay": "FACS, cyno CD8+ memory"}, "[8]": {"biological_target": "T1, cynomolgus α4β7 integrin", "assay": "FACS, cyno CD8+ memory", "remark": "listed apart in the source"}, "[9]": {"biological_target": "T2, rabbit α4β7 integrin (rabbit)", "T2 construct": "whole, on cells; On rabbit PBMCs", "assay": "FACS, rabbit CD4+ T cells"}, "[10]": {"biological_target": "T1, cynomolgus α4β7 integrin", "assay": "FACS, cynomolgus lymphocytes"}, "[11]": {"biological_target": "T1, cynomolgus α4β7 integrin", "assay": "FACS, cynomolgus lymphocytes", "remark": "listed apart in the source"}, "[12]": {"biological_target": "T1, cynomolgus α4β7 integrin", "assay": "FACS, cyno total CD8+ T cells"}, "[13]": {"biological_target": "T1, cynomolgus α4β7 integrin", "assay": "FACS, cynomolgus CD4+ T cells"}, "[14]": {"biological_target": "T1, cynomolgus α4β7 integrin", "assay": "binding to cyno CD4+ Tm cells"}, "[15]": {"biological_target": "T1, cynomolgus α4β7 integrin", "assay": "FACS, cyno CD4+ memory T cells"}, "[16]": {"biological_target": "T1, cynomolgus α4β7 integrin", "assay": "FACS, cyno CD8+ memory T cells"}, "[17]": {"biological_target": "T1, cynomolgus α4β7 integrin", "assay": "binding, cynomolgus CD8+ memory T cells, summary table"}, "[18]": {"biological_target": "T3, human α4β1 integrin (human, UniProt P05556 21-798)", "T3 construct": "whole, on cells; also called hα4β1", "assay": "FACS on recombinant cells expressing human α4β1; N=1"}, "[19]": {"biological_target": "T4, human FcγRI extracellular domain protein (human, UniProt P12314 16-292)", "T4 construct": "extracellular domain; also called hFcγRI", "T4 sequence (P12314 16-292)": "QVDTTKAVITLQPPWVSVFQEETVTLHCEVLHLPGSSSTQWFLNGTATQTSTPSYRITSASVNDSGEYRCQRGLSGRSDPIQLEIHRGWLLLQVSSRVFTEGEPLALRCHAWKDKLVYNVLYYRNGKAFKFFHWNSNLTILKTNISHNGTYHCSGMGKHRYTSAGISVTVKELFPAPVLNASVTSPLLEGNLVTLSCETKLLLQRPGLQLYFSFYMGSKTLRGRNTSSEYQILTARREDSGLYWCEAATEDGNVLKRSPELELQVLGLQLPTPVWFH", "assay": "SPR (Biacore T200), His-tagged FcγR captured by anti-His, antibody injected"}, "[20]": {"biological_target": "T5, human FcγRIIa (H131) extracellular domain protein (human, UniProt P12318 34-217)", "T5 construct": "extracellular domain; also called hFcγRIIa (H131); FcγRIIa 131H", "T5 sequence (looked up)": "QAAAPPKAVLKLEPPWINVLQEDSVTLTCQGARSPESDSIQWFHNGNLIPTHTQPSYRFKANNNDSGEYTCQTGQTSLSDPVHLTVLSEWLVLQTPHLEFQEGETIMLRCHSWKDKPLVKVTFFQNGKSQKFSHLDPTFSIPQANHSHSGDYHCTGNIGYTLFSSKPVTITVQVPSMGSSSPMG", "assay": "SPR (Biacore T200), His-tagged FcγR captured by anti-His, antibody injected"}, "[21]": {"biological_target": "T6, human FcγRIIIa (F158) extracellular domain protein (human, UniProt P08637 17-208)", "T6 construct": "extracellular domain; also called hFcγRIIIa (F158); FcγRIIIa158F", "T6 sequence (P08637 17-208)": "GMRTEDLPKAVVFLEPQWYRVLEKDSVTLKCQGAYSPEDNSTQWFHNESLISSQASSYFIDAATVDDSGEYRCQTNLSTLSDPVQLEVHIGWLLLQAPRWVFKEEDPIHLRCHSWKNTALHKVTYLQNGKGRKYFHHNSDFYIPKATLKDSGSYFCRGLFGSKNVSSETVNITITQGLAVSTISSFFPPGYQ", "assay": "SPR (Biacore T200), His-tagged FcγR captured by anti-His, antibody injected"}, "[22]": {"biological_target": "T7, human FcγRIIIa (V158) extracellular domain protein (human, UniProt P08637 17-208)", "T7 construct": "extracellular domain; also called hFcγRIIIa (V158); FcγRIIIa158V", "T7 sequence (P08637 17-208 F176V limits assumed)": "as the sequence (P08637 17-208) above, with F160V counted along it", "assay": "SPR (Biacore T200), His-tagged FcγR captured by anti-His, antibody injected"}, "[23]": {"biological_target": "T8, human FcγRI on CHO-K1 cells (human, UniProt P12314 16-374)", "T8 construct": "whole, on cells", "T8 sequence (P12314 16-374)": "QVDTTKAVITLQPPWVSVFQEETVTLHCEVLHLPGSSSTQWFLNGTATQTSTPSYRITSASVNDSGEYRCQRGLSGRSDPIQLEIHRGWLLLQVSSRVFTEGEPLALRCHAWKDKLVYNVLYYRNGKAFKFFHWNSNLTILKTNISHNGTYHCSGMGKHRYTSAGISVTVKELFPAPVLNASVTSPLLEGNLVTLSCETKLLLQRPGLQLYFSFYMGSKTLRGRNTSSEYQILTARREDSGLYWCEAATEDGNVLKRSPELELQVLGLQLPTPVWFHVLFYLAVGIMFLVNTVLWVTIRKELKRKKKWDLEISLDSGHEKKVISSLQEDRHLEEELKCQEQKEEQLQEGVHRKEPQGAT", "assay": "flow cytometry on CHO-K1 cells expressing the receptor (curve FcgRI), monomeric antibody, F(ab')2 anti-human IgG AF647; N=1"}, "[24]": {"biological_target": "T9, FcgRIIIB SH (human, UniProt O75015)", "T9 construct": "cell surface, on engineered CHO-K1 cells; the list of molecules has only an FcγRIIIb on CHO-K1 cells without the allotype; also called human FcγRIIIb (SH) on CHO-K1 cells", "T9 sequence (O75015 17-200 N65S/A78D limits assumed)": "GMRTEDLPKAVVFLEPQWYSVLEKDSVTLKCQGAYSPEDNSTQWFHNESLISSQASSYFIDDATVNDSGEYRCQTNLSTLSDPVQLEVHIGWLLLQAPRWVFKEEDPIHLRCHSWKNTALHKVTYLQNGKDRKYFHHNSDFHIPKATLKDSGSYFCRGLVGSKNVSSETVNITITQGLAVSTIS", "assay": "flow cytometry on CHO-K1 cells expressing the receptor (curve FcgRIIIB SH), monomeric antibody, F(ab')2 anti-human IgG AF647; N=1"}, "[25]": {"biological_target": "T10, FcgRIIA R131 (human, UniProt P12318)", "T10 construct": "cell surface, on engineered CHO-K1 cells; the list of molecules has only an FcγRIIa on CHO-K1 cells without the variant; also called human FcγRIIa (R131) on CHO-K1 cells", "T10 sequence (receptor chain, looked up)": "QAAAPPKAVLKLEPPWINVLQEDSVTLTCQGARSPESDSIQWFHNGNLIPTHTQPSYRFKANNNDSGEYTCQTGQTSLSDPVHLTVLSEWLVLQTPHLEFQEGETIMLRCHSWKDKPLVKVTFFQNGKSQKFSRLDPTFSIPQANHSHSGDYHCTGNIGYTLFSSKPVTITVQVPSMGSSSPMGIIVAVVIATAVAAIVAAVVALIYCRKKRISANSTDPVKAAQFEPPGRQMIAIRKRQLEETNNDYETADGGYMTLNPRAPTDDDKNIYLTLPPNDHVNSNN", "assay": "flow cytometry on CHO-K1 cells expressing the receptor (curve FcgRIIA R131), monomeric antibody, F(ab')2 anti-human IgG AF647; N=1"}, "[26]": {"biological_target": "T11, FcgRIIIB NA1 (human, UniProt O75015)", "T11 construct": "cell surface, on engineered CHO-K1 cells; the list of molecules has only an FcγRIIIb on CHO-K1 cells without the allotype; also called human FcγRIIIb (NA1) on CHO-K1 cells", "T11 sequence (O75015 other isoform, or with tags, fused parts or gaps limits assumed)": "as the sequence (O75015 17-200 N65S/A78D limits assumed) above, with S20R, S49N, D62A, N66D, I90V counted along it", "assay": "flow cytometry on CHO-K1 cells expressing the receptor (curve FcgRIIIB NA1), monomeric antibody, F(ab')2 anti-human IgG AF647; N=1"}},
  "data": [
    {"binder": "Ab-h1.9d-WT (antibody, human IgG1, kappa, IgG1/kappa with D356E and L358M (EU); also called Anti-human α4β7 (AC-166667) hu IgG1/k WT mAb) heavy: not shown light: DIQMTQSPSSLSASVGDRVTITCHASQDISDNIGWLQQKPGKSFKLLIYHGTNLEDGVPSRFSGSGSGTDYTLTISSLQPEDFATYYCVQYAQFPWTFGGGTKVEIKRTVAAPSVFIFPPSDEQLKSGTASVVCLLNNFYPREAKVQWKVDNALQSGNSQESVTEQDSKDSTYSLSSTLTLSKADYEKHKVYACEVTHQGLSSPVTKSFNRGEC", "values": [
      {"measurement": "EC50", "setting": "[1]", "value": 0.03, "unit": "nM"},
      {"measurement": "EC50", "setting": "[2]", "value": 0.045, "unit": "nM"},
      {"measurement": "EC50", "setting": "[3]", "value": 0.03, "unit": "nM"},
      {"measurement": "EC50", "setting": "[4]", "value": 0.042, "unit": "nM"},
      {"measurement": "EC50", "setting": "[5]", "value": 0.035, "unit": "nM"},
      {"measurement": "EC50", "setting": "[6]", "value": 0.01, "unit": "nM"},
      {"measurement": "EC50", "setting": "[7]", "value": 0.036, "unit": "nM"},
      {"measurement": "EC50", "setting": "[8]", "value": 0.036, "unit": "nM"},
      {"measurement": "EC50", "setting": "[9]", "value": 0.097, "unit": "nM"},
      {"measurement": "EC50", "setting": "[10]", "value": 0.062, "unit": "nM"},
      {"measurement": "EC50", "setting": "[11]", "value": 0.062, "unit": "nM"},
      {"measurement": "EC50", "setting": "[12]", "value": 0.035, "unit": "nM"},
      {"measurement": "EC50", "setting": "[13]", "value": 0.03, "unit": "nM"},
      {"measurement": "EC50", "setting": "[14]", "value": 0.01, "unit": "nM"},
      {"measurement": "EC50", "setting": "[15]", "value": 0.01, "unit": "nM"},
      {"measurement": "EC50", "setting": "[16]", "value": 0.036, "unit": "nM"},
      {"measurement": "EC50", "setting": "[17]", "value": 0.036, "unit": "nM"},
      {"measurement": "binding result", "setting": "[18]", "value": "no binding (tested: about 70 (axis without unit))"},
      {"measurement": "Kd", "setting": "[19]", "value": 16, "unit": "nM"},
      {"measurement": "Kd", "setting": "[20]", "value": 5600, "unit": "nM"},
      {"measurement": "Kd", "setting": "[21]", "value": 4600, "unit": "nM"},
      {"measurement": "Kd", "setting": "[22]", "value": 480, "unit": "nM"},
      {"measurement": "binding result", "setting": "[23]", "value": "binds"},
      {"measurement": "binding result", "setting": "[24]", "value": "binds"},
      {"measurement": "binding result", "setting": "[25]", "value": "binds"},
      {"measurement": "binding result", "setting": "[26]", "value": "binds"}
    ]}
  ]
}
